From publication PMC9307175 (PLoS Pathogens, 2022) come the findings set out here.

Sequences and labels used below:
B1: S-peptide and His6 dually-tagged vIRF-1, bacterially expressed (pET-S-vIRF-1-His6) (natural protein)
chain: MDPGQRPNPFGAPGAIPKKPCLSQGSPGTSGSGAPCDEPSRSESPGEGPSGTGGSAAAGDITRQAVVAAITEWSRTRQLRISTGASEGKASIKDWIVCQVNSGKFPGVEWEDEERTRFRIPVTPLADPCFEWRRDGELGVVYIRERGNMPVDASFKGTRGRRRMLAALRRTRGLQEIGKGISQDGHHFLVFRVRKPEEEQCVECGVVAGAVHDFNNMARLLQEGFFSPGQCLPGEIVTPVPSCTTAEGQEAVIDWGRLFIRMYYNGEQVHELLTTSQSGCRISSALRRDPAVHYCAVGSPGQVWLPNVPNLACEIAKRELCDTLDACAKGILLTSSCNGIFCVCYHNGPVHFIGNTVPPDSGPLLLPQGKPTRIFNPNTFLVGLANSPLPAPSHVTCPLVKLWLGKPVAVGKLEPHAPSPRDFAARCSNFSDACVVLEIMPKPLWDAMQ
notes: source: E. coli BL21(DE3), purified (Ni-NTA)
B2: StrepII+Flag (SF)-tagged vIRF-1 (natural protein)
chain: B1 chain
B3: Flag-tagged STAT1 (pCEBZ-STAT1-SF) (natural protein)
chain: MSQWYELQQLDSKFLEQVHQLYDDSFPMEIRQYLAQWLEKQDWEHAANDVSFATIRFHDLLSQLDDQYSRFSLENNFLLQHNIRKSKRNLQDNFQEDPIQMSMIIYSCLKEERKILENAQRFNQAQSGNIQSTVMLDKQKELDSKVRNVKDKVMCIEHEIKSLEDLQDEYDFKCKTLQNREHETNGVAKSDQKQEQLLLKKMYLMLDNKRKEVVHKIIELLNVTELTQNALINDELVEWKRRQQSACIGGPPNACLDQLQNWFTIVAESLQQVRQQLKKLEELEQKYTYEHDPITKNKQVLWDRTFSLFQQLIQSSFVVERQPCMPTHPQRPLVLKTGVQFTVKLRLLVKLQELNYNLKVKVLFDKDVNERNTVKGFRKFNILGTHTKVMNMEESTNGSLAAEFRHLQLKEQKNAGTRTNEGPLIVTEELHSLSFETQLCQPGLVIDLETTSLPVVVISNVSQLPSGWASILWYNMLVAEPRNLSFFLTPPCARWAQLSEVLSWQFSSVTKRGLNVDQLNMLGEKLLGPNASPDGLIPWTRFCKENINDKNFPFWLWIESILELIKKHLLPLWNDGCIMGFISKERERALLKDQQPGTFLLRFSESSREGAITFTWVERSQNGGEPDFHAVEPYTKKELSAVTFPDIIRNYKVMAAENIPENPLKYLYPNIDKDHAFGKYYSRPKEAPEPMELDGPKGTGYIKTELISVSEVHPSRLQTTDNLLPMSPEEFDEVSRIVGSVEFDSMMNTV
notes: also called STAT1-Flag
B4: Flag- and His6-tagged IRF9, bacterially expressed (pET-Flag-IRF9-His6) (natural protein)
chain: MASGRARCTRKLRNWVVEQVESGQFPGVCWDDTAKTMFRIPWKHAGKQDFREDQDAAFFKAWAIFKGKYKEGDTGGPAVWKTRLRCALNKSSEFKEVPERGRMDVAEPYKVYQLLPPGIVSGQPGTQKVPSKRQHSSVSSERKEEEDAMQNCTLSPSVLQDSLNNEEEGASGGAVHSDIGSSSSSSSPEPQEVTDTTEAPFQGDQRSLEFLLPPEPDYSLLLTFIYNGRVVGEAQVQSLDCRLVAEPSGSESSMEQVLFPKPGPLEPTQRLLSQLERGILVASNPRGLFVQRLCPIPISWNAPQAPPGPGPHLLPSNECVELFRTAYFCRDLVRYFQGLGPPPKFQVTLNFWEESHGSSHTPQNLITVKMEQAFARYLLEQTPEQQAAILSLV
notes: also called IRF9 (Flag-tagged); recombinant IRF9; source: E. coli BL21(DE3), purified (Ni-NTA)

The target in experiment [1] is T1, Flag- and His6-tagged STAT2, bacterially expressed (pET-Flag-STAT2-His6) (human, UniProt P52630 1-851).
T1 construct: also called STAT2 (Flag-tagged); recombinant STAT2; source: E. coli BL21(DE3), purified (Ni-NTA)
T1 sequence (P52630 whole entry): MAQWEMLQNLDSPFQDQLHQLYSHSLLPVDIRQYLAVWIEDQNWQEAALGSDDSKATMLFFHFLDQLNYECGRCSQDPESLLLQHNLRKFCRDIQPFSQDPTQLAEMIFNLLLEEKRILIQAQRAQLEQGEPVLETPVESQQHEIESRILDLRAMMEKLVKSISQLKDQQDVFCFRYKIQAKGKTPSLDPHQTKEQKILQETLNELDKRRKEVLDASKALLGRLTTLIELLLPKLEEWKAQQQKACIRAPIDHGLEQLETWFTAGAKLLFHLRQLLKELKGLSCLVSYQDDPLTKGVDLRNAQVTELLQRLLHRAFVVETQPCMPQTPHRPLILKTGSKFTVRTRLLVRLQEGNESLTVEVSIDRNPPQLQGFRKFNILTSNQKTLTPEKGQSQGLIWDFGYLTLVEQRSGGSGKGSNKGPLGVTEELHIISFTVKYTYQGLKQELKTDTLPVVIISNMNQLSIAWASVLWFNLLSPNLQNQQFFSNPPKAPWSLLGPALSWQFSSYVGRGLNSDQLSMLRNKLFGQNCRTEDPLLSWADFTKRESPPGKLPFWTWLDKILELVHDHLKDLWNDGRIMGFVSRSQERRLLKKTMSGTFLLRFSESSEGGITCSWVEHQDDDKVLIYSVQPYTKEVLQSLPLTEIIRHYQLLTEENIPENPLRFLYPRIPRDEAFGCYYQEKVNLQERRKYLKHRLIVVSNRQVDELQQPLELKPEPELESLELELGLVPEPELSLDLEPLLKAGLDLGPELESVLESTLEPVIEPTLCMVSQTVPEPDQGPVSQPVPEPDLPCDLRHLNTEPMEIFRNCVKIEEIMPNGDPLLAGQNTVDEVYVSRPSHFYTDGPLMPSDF
The experiment in a line: pull-down. Conditions: both partners purified.

Experiment [2] concerns the target T2, Flag- and His6-tagged STAT1, bacterially expressed (pET-Flag-STAT1-His6) (human, UniProt P42224 1-750).
T2 construct: also called STAT1 (Flag-tagged); recombinant STAT1; source: E. coli BL21(DE3), purified (Ni-NTA)
T2 sequence: B3 chain
The experiment in a line: pull-down. Conditions: both partners purified.

Experiment [3] has as its target T3, chitin-binding domain (CBD)-tagged STAT2 (human (HeLa cDNA library), UniProt P52630 1-851).
T3 construct: also called STAT2-CBD; CBD-fused STAT2
Kind of experiment: co-IP. As to conditions: partners not purified.

Experiment [4] concerns the target B1. The experiment in a line: pull-down. As to conditions: both partners purified.

T3 sequence (P52630 whole entry, the tested form may be a part): as the sequence (P52630 whole entry) above

For B1, the binding result in experiment [1] and in experiment [2] was “binds” in each case.
As to B2, the binding result in experiment [3] is given as “binds”.
On the same count and under the same terms, in the case of B3 it was “binds”.
As to B4, the binding result in experiment [4] is reported as “binds”.
